Values quoted from earlier work as cited in US20230303640A1, “EXENDIN-4 PEPTIDE ANALOGS” (TXP Pharma AG, priority 2020, published 2023).

Target: T1, human GLP-1 receptor (Homo sapiens, UniProt P43220)
T1 construct: expressed in transfected cells; host or cells: CHO-K1
Conditions: FIG. 3; data included and detailed in PCT/IB2015/000553 (WO/2015/162485)

T1 sequence (P43220 24-463): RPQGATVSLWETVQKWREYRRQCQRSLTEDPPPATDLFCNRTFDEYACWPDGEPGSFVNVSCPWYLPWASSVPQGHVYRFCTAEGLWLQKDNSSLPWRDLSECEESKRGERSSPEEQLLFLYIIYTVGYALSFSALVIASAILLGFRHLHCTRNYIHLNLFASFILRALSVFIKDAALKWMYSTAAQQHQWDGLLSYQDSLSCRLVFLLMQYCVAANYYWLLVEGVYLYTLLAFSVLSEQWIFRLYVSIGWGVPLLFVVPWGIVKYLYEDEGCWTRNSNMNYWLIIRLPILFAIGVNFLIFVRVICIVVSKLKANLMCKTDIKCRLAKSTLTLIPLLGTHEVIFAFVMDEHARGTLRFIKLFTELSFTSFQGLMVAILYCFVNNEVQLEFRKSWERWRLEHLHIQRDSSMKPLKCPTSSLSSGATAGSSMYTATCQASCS

For “Ac-His-Gly-Glu-Gly-Thr-Phe-Thr-Ser-Asp-Val-Ser-Ser-Tyr-Leu-Glu-Gly-Gln-Ala-Ala-Lys-Glu-Phe-Ile-Ala-Trp-Leu-Val-Lys-Gly-Arg-Gly-(Lys-Lys-Ac)Lys-NH2 (HGEGTFTSDVSSYLEGQAAKEFIAWLVKGRG; N-acetyl; C-terminal (Lys-Lys-Ac)Lys amide; printed: His-Gly-Glu-Gly-Thr-Phe-Thr-Ser-Asp-Val-Ser-Ser-Tyr-Leu-Glu-Gly-Gln-Ala-Ala-Lys-Glu-Phe-Ile-Ala-Trp-Leu-Val-Lys-Gly-Arg-Gly-) [Analogue 3, GLP-1 analogue with C-terminal BAP, from WO/2015/162485]”, the EC50 is listed as 0.04 nM.
